Test results reported in US7985736B2, “High throughput screen utilizing newly discovered intramolecular neuronal calcium channel interactions to discover new analgesics” (The John Hopkins University, priority 2004, dated 2011).

Molecular target: T1, I-IIB-YFP (Homo sapiens, UniProt Q00975)
T1 construct: I-IIB residues, 357-482; expressed in transfected cells; host or cells: HEK293
Experiment: Live-cell FRET two-hybrid assay versus I-IIB-YFP in HEK293 cells
Type: binding
Text: To confirm preferential interaction of NTB with I-IIB a live-cell FRET two-hybrid assay was used (Erickson et al., 2003), in which NTB, NTC, I-IIB, and I-IIC were fused to either CFP or YFP, and the resulting fusion constructs expressed pair-wise in mammalian HEK293 cells. Given a Forster distance of ˜50 Å for the CFP/YFP pair (Patterson et al., 2000), the presence of FRET in individual cells would give a strong indication of interpeptide binding in the mammalian intracellular milieu. This indication is generally characterized by a low false-positive rate (Erickson et al., 2003), so that FRET assays provide a useful complement to yeast two-hybrid assays (Allen et al., 1995). […] SCFP (the signal derived from an image obtained with the CFP filter cube) is selective for CFP fluorescence and thereby gives an optical measure of NTB-CFP expression. Analogously, the SYFP signal, derived from preferential excitation and detection of YFP, estimates I-IIB-YFP levels. Finally, the SFRET signal reflects I-IIB-YFP fluorescence stimulated by FRET transfer from NTB-CFP, as well as secondary cross-talk signals. These three signals can be incorporated within a three-cube FRET algorithm to determine the strength of FRET interaction (“FRET ratio,” FR), independently of cross-talk (Erickson et al., 2001). FR adopts a value of unity in the absence of FRET and grows linearly with increasing FRET efficiency (Erickson et al., 2003). FR values for many individual cells are plotted as circles in FIG. 2Eb, with numerous determinations clearly greater than unity. Alternatively, FR values specified by a YFP-photobleaching methodology were also elevated above unity (triangles) (Bastiaens and Jovin, 1996). […] Consistent with yeast two-hybrid assays, then, FRET assays confirmed a selective propensity for NTB and I-IIB segments to associate.
Human m2 muscarinic acetylcholine receptor (AF498916) was engineered to reduce desensitization (Pals-Rylaarsdam and Hosey, 1997). QuikChange (Stratagene, La Jolla, Calif.) introduced cluster mutations, yielding m2R: residues 286-290 (STSVS/AAAVA), residues 307-311 (TVSTS/AVAAA). For FRET assays, base templates were ECFP/EYFP-tagged calmodulin constructs in pcDNA3 (Invitrogen, Carlsbad, Calif.), as described (Erickson et al., 2001). PCR-amplified channel segments or G proteins were substituted for calmodulin via upstream EcoRI and downstream NheI sites, creating in-frame fusions with fluorophore (ECFP/EYFP C-terminal to test molecules). NTC residues, 1-53; I-IIB residues, 357-482; and I-IIC residues, 436-554.
Experiments were performed mostly as previously described (Erickson et al., 2001; Erickson et al., 2003). Briefly, the FRET Ratio (FR) is the fractional increase in YFP emission due to FRET. […] For donor-dequenching analysis, EEFF is calculated as EEFF=^1−CFPpre/CFPpost, where CFPpre and CFPpost are the CFP emissions before/after 3 min YFP photobleaching. FR is determined by FR=(EEFF/[EYFP/ECFP])+1, where EYFP/ECFP is ratio of YFP and CFP molar extinction coefficients through 440 nm excitation bandpass of FRET cube (0.0574). For binding model analysis, Kd,EFF is the effective dissociation constant, related to actual Kd via filter/microscope optical characteristics. […]
Experiments were performed as described previously for the most part (Erickson et al., 2001; Erickson et al., 2003). Specifically, for quantitative analysis, all fluorescence from single cells were isolated through a pinhole in the image plane, and detected by photo-multiplier tube. In all three-cube FRET experiments, CFP levels were below a threshold where spurious, concentration-dependent FRET became significant (Stratton et al., 2004). Similarly, for donor-dequenching experiments, YFP levels were below an analogous threshold. […]

T1 sequence (Q00975 357-482): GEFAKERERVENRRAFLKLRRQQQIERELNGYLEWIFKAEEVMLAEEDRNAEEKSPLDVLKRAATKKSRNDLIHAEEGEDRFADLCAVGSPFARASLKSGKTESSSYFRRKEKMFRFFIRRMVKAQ

NTC: NH3 terminus of L-type channel α1C subunit, free peptide [reference compound]
Kd,EFF relative to NTB/I-IIB (NTC-CFP versus I-IIB-YFP, lower-limit estimate): ≥ 8 fold
Kd,EFF / affinity for I-IIB (FRET), in words (relative dissociation constant, HEK293 cells): larger by an order of magnitude or more
